The values that follow come from US20220251236A1 (Boehringer Ingelheim, published 2022).

One assay addresses T1, T CELLS (human, UniProt P07766;P09693).
T1 construct: native, on the surface of purified human T cells; The sheets print only 'T CELLS'; also called human CD3 on purified human T cells; CD3 epsilon/gamma complex
The experiment in a line: flow cytometry titration on purified human T cells, PE anti-human secondary, x-fold over background. The text has this:
(§1) Cells (T cells or human SCLC cells) were stained with increasing concentrations of two-step purified DLL3/CD3 binding proteins with increasing concentrations in FACS buffer (PBS/0.5% BSA/0.05% sodium azide). Bound molecules were detected with PE-conjugated anti-human secondary antibody (Sigma-Aldrich, #P8047).
Background: Flow cytometry measures light scatter and fluorescence of single cells or particles in a stream.

Assay [1] concerns the target T2, human DLL3 (endogenous, on SCLC cell lines NCI-H82 and SHP77 and in SCLC tissue) (human, UniProt Q9NYJ7 27-618).
T2 construct: whole, on cells; also called SCLC cell lines expressing DLL3
T2 sequence (looked up): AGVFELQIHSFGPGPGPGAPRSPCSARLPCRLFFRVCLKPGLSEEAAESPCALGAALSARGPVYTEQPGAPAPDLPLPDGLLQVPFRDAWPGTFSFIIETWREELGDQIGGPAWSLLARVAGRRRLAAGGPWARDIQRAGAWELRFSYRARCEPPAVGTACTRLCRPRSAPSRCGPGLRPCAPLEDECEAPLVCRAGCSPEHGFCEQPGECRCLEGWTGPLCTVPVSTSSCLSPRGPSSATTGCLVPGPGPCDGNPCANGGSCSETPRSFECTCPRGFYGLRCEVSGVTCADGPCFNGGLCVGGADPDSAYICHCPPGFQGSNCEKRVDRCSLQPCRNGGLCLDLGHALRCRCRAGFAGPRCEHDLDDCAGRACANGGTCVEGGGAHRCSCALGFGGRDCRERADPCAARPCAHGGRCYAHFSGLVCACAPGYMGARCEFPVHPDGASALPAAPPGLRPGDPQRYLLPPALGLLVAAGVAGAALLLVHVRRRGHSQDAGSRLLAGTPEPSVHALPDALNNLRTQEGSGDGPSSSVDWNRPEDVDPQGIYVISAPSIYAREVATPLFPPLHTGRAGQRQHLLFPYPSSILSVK
The experiment in a line: flow cytometry titration on NCI-H82 cells, PE anti-human secondary, x-fold over background.
Excerpt: as §1

The next assay addresses T3, Human DLL3-His (human, UniProt Q9NYJ7 27-492).
T3 construct: also called huDLL3-His; hu DLL3
T3 sequence: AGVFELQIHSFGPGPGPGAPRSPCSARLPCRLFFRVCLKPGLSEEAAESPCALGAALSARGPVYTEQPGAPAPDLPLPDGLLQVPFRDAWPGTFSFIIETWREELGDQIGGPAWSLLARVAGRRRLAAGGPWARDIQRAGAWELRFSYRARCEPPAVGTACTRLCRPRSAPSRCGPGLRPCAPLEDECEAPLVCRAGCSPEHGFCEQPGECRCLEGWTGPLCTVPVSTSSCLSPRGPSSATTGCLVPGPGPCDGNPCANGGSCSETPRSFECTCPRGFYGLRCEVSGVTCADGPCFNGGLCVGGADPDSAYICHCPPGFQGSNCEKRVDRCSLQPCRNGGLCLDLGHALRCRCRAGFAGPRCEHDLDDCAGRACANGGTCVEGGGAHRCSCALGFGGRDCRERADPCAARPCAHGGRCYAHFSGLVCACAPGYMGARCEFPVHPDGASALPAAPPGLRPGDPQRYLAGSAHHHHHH
The experiment in a line: SPR (ProteOn XPR36), bispecific captured on protein A/G, DLL3 as analyte, Example 4A.

The next assay has as its target T4, Cyno CD3 E+G HuFc-6xHis (cynomolgus monkey).
T4 construct: also called cy CD3εγ-Fc; Recomb; Cyno CD3 εγ
The experiment in a line: SPR (ProteOn XPR36), CD3εγ-Fc amine-coupled, bispecific as analyte, equilibrium fit, Example 4A.

A word on the EC50 (read off the curve): it is the concentration needed to bring the measured effect to its halfway point. For orientation: Kd means the equilibrium constant for the complex coming apart. A lower Kd goes with higher affinity.

T1 sequence (P07766 23-207, chain 1 of 2): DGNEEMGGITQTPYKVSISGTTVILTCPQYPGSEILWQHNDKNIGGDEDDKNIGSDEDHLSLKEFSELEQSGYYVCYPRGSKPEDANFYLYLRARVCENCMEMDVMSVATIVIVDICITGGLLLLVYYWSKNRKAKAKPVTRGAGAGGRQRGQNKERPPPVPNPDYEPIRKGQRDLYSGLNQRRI
T1 sequence (P09693 23-182, chain 2 of 2): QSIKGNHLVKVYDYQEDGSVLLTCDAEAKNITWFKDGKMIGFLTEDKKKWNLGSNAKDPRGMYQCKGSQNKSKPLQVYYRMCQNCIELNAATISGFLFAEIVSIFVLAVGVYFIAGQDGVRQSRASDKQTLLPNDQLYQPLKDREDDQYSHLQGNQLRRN
T4 sequence (chain, as listed by the source limits assumed): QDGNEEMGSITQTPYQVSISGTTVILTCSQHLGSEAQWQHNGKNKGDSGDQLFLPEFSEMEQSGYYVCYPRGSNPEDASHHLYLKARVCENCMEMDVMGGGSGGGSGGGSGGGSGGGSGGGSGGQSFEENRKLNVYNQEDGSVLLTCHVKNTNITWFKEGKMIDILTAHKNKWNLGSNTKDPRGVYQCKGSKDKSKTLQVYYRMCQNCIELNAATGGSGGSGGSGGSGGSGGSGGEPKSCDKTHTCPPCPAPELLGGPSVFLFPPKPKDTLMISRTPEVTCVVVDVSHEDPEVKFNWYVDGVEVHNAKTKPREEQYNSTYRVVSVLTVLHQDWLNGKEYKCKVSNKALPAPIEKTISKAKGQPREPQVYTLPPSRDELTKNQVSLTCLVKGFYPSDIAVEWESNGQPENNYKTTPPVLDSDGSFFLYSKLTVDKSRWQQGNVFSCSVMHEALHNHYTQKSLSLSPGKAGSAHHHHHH

B1: DLL3#2/CD3#1 (bispecific antibody, human IgG1, kappa, lambda, L234A L235A)
chain 1: DIQMTQSPSAMSASVGDRVTITCRASQGISNYLAWFQQKPGKVPEPLIYAASSLQSGVPSRFSGSGSVTEFTLTISSLQPEDFATYYCLQHNSSPYTFGQGTKLEIKRTVAAPSVFIFPPSDEQLKSGTASVVCLLNNFYPREAKVQWKVDNALQSGNSQESVTEQDSKDSTYSLSSTLTLSKADYEKHKVYACEVTHQGLSSPVTKSFNRGECGGGGSEGKSSGSGSESKSTEGKSSGSGSESKSTGGGGSQVQLVQSGAEVKKPGASVKVSCKASGYTFTSYYMHWVRQAPGQGLEWMGIINPSGGSTSYAQKFQGRVTMTRDTSTSTVYMELSSLRSEDTAVYYCARGEAVGGNYYYYGMDVWGQGTTVTVSSASTKGPSVFPLAPSSKSTSGGTAALGCLVKDYFPEPVTVSWNSGALTSGVHTFPAVLQSSGLYSLSSVVTVPSSSLGTQTYICNVNHKPSNTKVDKRVEPKSCDKTHTCPPCPAPEAAGGPSVFLFPPKPKDTLMISRTPEVTCVVVDVSHEDPEVKFNWYVDGVEVHNAKTKPREEQYNSTYRVVSVLTVLHQDWLNGKEYKCKVSNKALPAPIEKTISKAKGQPREPQVYTLPPSREEMTKNQVSLWCLVKGFYPSDIAVEWESNGQPENNYKTTPPVLDSDGSFFLYSKLTVDKSRWQQGNVFSCSVMHEALHNHYTQKSLSLSPG
chain 2: EAVVTQEPSLTVSPGGTVTLTCRSSTGAVTTSNYANWVQEKPGQLPRGLIGGTNKRAPWVPARFSGSLLGGKAALTLSGAQPEDEAEYFCALWYSNLWVFGGGTKLTVLGQPKAAPSVTLFPPSSEELQANKATLVCLISDFYPGAVKVAWKADGSPVNTGVETTTPSKQSNNKYAASSYLSLTPEQWKSHRSYSCQVTHEGSTVEKTVAPAECSGGGGSEGKSSGSGSESKSTEGKSSGSGSESKSTGGGGSEVQLVESGGGLVQPGGSLKLSCAASGFTFNTYAMNWVRQAPGKGLEWVARIRSKYNNYATYYADSVKDRFTISRDDSKNTAYLQMNNLKTEDTAVYYCVRHGNFGNSYVSWFAYWGQGTLVTVSAASTKGPSVFPLAPSSKSTSGGTAALGCLVKDYFPEPVTVSWNSGALTSGVHTFPAVLQSSGLYSLSSVVTVPSSSLGTQTYICNVNHKPSNTKVDKRVEPKSCDKTHTCPPCPAPEAAGGPSVFLFPPKPKDTLMISRTPEVTCVVVDVSHEDPEVKFNWYVDGVEVHNAKTKPREEQYNSTYRVVSVLTVLHQDWLNGKEYKCKVSNKALPAPIEKTISKAKGQPREPQVYTLPPSREEMTKNQVSLSCAVKGFYPSDIAVEWESNGQPENNYKTTPPVLDSDGSFFLVSKLTVDKSRWQQGNVFSCSVMHEALHNRFTQKSLSLSPG
notes: Heterodimer of one DLL3 chain and one CD3 chain (scFab-Fc, knob-in-hole)
For the molecule B1, the “EC50 (read off the curve)” value with T CELLS is ~10 nM.

B2: DLL3#4/CD3#1 (bispecific antibody, human IgG1, kappa, lambda, L234A L235A)
chain 1: not shown
chain 2: EAVVTQEPSLTVSPGGTVTLTCRSSTGAVTTSNYANWVQEKPGQLPRGLIGGTNKRAPWVPARFSGSLLGGKAALTLSGAQPEDEAEYFCALWYSNLWVFGGGTKLTVLGQPKAAPSVTLFPPSSEELQANKATLVCLISDFYPGAVKVAWKADGSPVNTGVETTTPSKQSNNKYAASSYLSLTPEQWKSHRSYSCQVTHEGSTVEKTVAPAECSGGGGSEGKSSGSGSESKSTEGKSSGSGSESKSTGGGGSEVQLVESGGGLVQPGGSLKLSCAASGFTFNTYAMNWVRQAPGKGLEWVARIRSKYNNYATYYADSVKDRFTISRDDSKNTAYLQMNNLKTEDTAVYYCVRHGNFGNSYVSWFAYWGQGTLVTVSAASTKGPSVFPLAPSSKSTSGGTAALGCLVKDYFPEPVTVSWNSGALTSGVHTFPAVLQSSGLYSLSSVVTVPSSSLGTQTYICNVNHKPSNTKVDKRVEPKSCDKTHTCPPCPAPEAAGGPSVFLFPPKPKDTLMISRTPEVTCVVVDVSHEDPEVKFNWYVDGVEVHNAKTKPREEQYNSTYRVVSVLTVLHQDWLNGKEYKCKVSNKALPAPIEKTISKAKGQPREPQVYTLPPSREEMTKNQVSLSCAVKGFYPSDIAVEWESNGQPENNYKTTPPVLDSDGSFFLVSKLTVDKSRWQQGNVFSCSVMHEALHNRFTQKSLSLSPG
notes: as for B1
For B2, the “EC50 (read off the curve)” value in assay [1] is ~0.1 nM.

B3: DLL3#3/CD3#2 (bispecific antibody, human IgG1, kappa, lambda, L234A L235A)
chain 1: DIQMTQSPSAMSASVGDRVTITCRASQGISNYLVWFQQKPGKAPKRLIYAVSSLYSGVPSRFSGSGSGTEFTLTISSLQPEDFATYYCLQHDSYPYTFGQGTKLEIKRTVAAPSVFIFPPSDEQLKSGTASVVCLLNNFYPREAKVQWKVDNALQSGNSQESVTEQDSKDSTYSLSSTLTLSKADYEKHKVYACEVTHQGLSSPVTKSFNRGECGGGGSEGKSSGSGSESKSTEGKSSGSGSESKSTGGGGSQVQLVQSGAEVKKPGASVKVSCKASGYTFTSYYVHWVRQAPGQGLEWMVIINPGGGTTSYAQKFLGRVTMTRDTSTNTVYMELKSLRSEDTAVYYCARGEAVTGNYFYYGMDVWGQGTTVTVSSASTKGPSVFPLAPSSKSTSGGTAALGCLVKDYFPEPVTVSWNSGALTSGVHTFPAVLQSSGLYSLSSVVTVPSSSLGTQTYICNVNHKPSNTKVDKRVEPKSCDKTHTCPPCPAPEAAGGPSVFLFPPKPKDTLMISRTPEVTCVVVDVSHEDPEVKFNWYVDGVEVHNAKTKPREEQYNSTYRVVSVLTVLHQDWLNGKEYKCKVSNKALPAPIEKTISKAKGQPREPQVYTLPPSREEMTKNQVSLWCLVKGFYPSDIAVEWESNGQPENNYKTTPPVLDSDGSFFLYSKLTVDKSRWQQGNVFSCSVMHEALHNHYTQKSLSLSPG
chain 2: EAVVTQEPSLTVSPGGTVTLTCRSSTGAVTTSNYANWVQEKPGQLPRGLIGGTNKRAPWVPARFSGSLLGGKAALTLSGAQPEDEAEYFCALWYSNLWVFGGGTKLTVLGQPKAAPSVTLFPPSSEELQANKATLVCLISDFYPGAVKVAWKADGSPVNTGVETTTPSKQSNNKYAASSYLSLTPEQWKSHRSYSCQVTHEGSTVEKTVAPAECSGGGGSEGKSSGSGSESKSTEGKSSGSGSESKSTGGGGSEVQLVESGGGLVQPGGSLKLSCAASGFTFNTYAMNWVRQAPGKGLEWVARIRSKYINYATYYADSVKDRFTISRDDSKNTAYLQMNNLKTEDTAVYYCVRHGNFGNSYVSWFAYWGQGTLVTVSAASTKGPSVFPLAPSSKSTSGGTAALGCLVKDYFPEPVTVSWNSGALTSGVHTFPAVLQSSGLYSLSSVVTVPSSSLGTQTYICNVNHKPSNTKVDKRVEPKSCDKTHTCPPCPAPEAAGGPSVFLFPPKPKDTLMISRTPEVTCVVVDVSHEDPEVKFNWYVDGVEVHNAKTKPREEQYNSTYRVVSVLTVLHQDWLNGKEYKCKVSNKALPAPIEKTISKAKGQPREPQVYTLPPSREEMTKNQVSLSCAVKGFYPSDIAVEWESNGQPENNYKTTPPVLDSDGSFFLVSKLTVDKSRWQQGNVFSCSVMHEALHNRFTQKSLSLSPG
notes: as for B1
Regarding B3, the Kd with Human DLL3-His was < 0.01 nM; with Cyno CD3 E+G HuFc-6xHis, 100 nM.
